Data from the domain aggregation screens of Martell et al. (2025).

test: soluble fraction after stress (log2 fold change); higher = more stays soluble; pooled small domains, quantitative proteomics; conditions: stress: pH 4
Outline: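 High-throughput quantitative proteomics was run on pooled custom libraries of small protein domains following pH 4 stress. Fold changes are on a log2 scale; higher values mean more of a domain remained soluble. The fold change in soluble amount is taken as a measure of aggregation propensity.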

| Sequence | soluble fraction (log2) |
| --- | --- |
| HMHLYDMYNLTEKEISIIRLIANGLNNKEISQELFLSEGTIKNNITNILAKLELRDRTQLAIFAFKNKIVI | -0.647 |
| HMSEYTRGELVSSLEAGEVAAVSIRPNRETPTGEAQIVLSDGQHRVLYVTDVREIEELVSSYGLNPQVEK | -0.233 |
| HMEFDSLINYEVKKKETLFSISKKFKIEINDLLSFNTELKNNKLKKNSIIIIPLKKKIVESQNFEKQKIID | -0.719 |
| HMYNNDEIEKIQTMYNAIYQLNDIEKALIMLFLEDKSYKEIAEIMGISEGNARIKMMRTKDKLKNLISKN | -0.608 |
| HMFNLFPHLSVLRNITLAPQKVKGLNRSESNEIAMSLLERVGIPEQSDKFPSQLSGGQQQRVAIARALAM | 0.22 |
| HMGVDASVDSKLDLLSQVLDSDQVKEQLPEAVLEQLAQNLDRWRSLHEESELQDDDIAELNRLLGLFGLG | -1.67 |
| HMGVPELHKGEIVQAVVEKVLGEGLLRVNLKGMTVEAATSLRLNPGQQLLLRSEGIENGRQVLR | 0.042 |
| HMNISRESLIGQILATLNKNPEEGFNYKQIAKRLNITDSPGRQMISDLLRELSKHGSLQEISHGKYKIKV | 0.215 |
| HMEDIPENIRYKFLLKELKENEHLNILDKENIARKLTEIDLPELEKELLENEILNSTIKDYLGIKLV | -0.912 |
| HMPAAKARTWQEATHAFQRDFLLETLRRARFNAADAADQLGLARPALYTTAKRLGLDLVAERQRWEAEAH | 0.043 |
| HMSSDEAEYKLLLGQEGVAKSPLRPSGVVDFSGRRLDVQTLGDFIESGETVVVKQVNGHRVLVERK | 0.0409 |
| HMALPGESVYVSILQSGSNRDQGVGYLDDGTMVVVDGAIKDIGKSIEVVINKSHQTVAGKMLFAKKVA | -0.144 |
| HMRAGHDFEALKHIESSLDKHLTDEGIKIKSEKRGAIVARWYQSHVEGREVTDDDVHTWIELFF | -2.2 |
| HMEVSLEDKMDYLTNYATTHKNFSFRNLLESSSGKIEVIVTFLAILELMKMGRINISQEHIFDDIIIESRI | -1.8 |
| HMANIAVTIPTGSSGDRIADILLQAGLIKDKQDFNQAVIAAGAEGKLRAGYFVIPSNATPAEIISILT | -0.253 |
| HMAPLRTQYVNVNYANAAEIKTLISGADKEVGSLLSERGSVVVDKRTNTLIIQDTQARLNDIGDLIEQLD | -0.52 |
| HMADGDIIPEGQRDATLASLAGSMRARGMTEAEILAALQVTNETRVRPPMALADLERIARSIGRYEPGK | 0.0649 |
| HMKADIEQVQRAFDTLDPKNQQLVLDAMKAATAELDPNSDQFKTNTEFINDNQKALDRHAKAS | 0.0627 |
| HMSTLKSALDEIPGIGAARKRALLNHFGSTRVISSVGVKDLEQVEGVSKKIALLIYGYFHDK | ≥ 0.43 |
| HMATPKRGFRKQLAPLVQSGTITREEAGELSRSSGDATALRTKIGELMKAGKLTRKEAGELYSDAFPENA | 0.0387 |
| HMGQELTMPDLKSMSRSNAEEKLKKMGLKLGAVFEENAKEPAGTVINQDPRSGSKITKGQTVDITVSLGEK | 0.0104 |
| HMIQTKKVTFTVEPTVNFEKINISGIEFKINSGSSITAIYEKNSHNFDEVLDFLKQKGVKILDIVTED | -0.824 |
| HMYEPPTEDEKRVLSLLATRESIVRSDVDRLLGVSQSTANRILKQMIEKYLISQEGTGKNTKYIK | -0.113 |
| HMTIQNSILDEIPNIGASRKRAILEAFGSVHRLRKASPEMISAKVEGIGPEMAQAIHDYLVKHPAT | 0.223 |
| HMQISDESSIAKIADEVISEFPSQVSEFRSGKEKVLQFLIGQVMKKTKGKANPQITAKILREKLS | 0.17 |

| Sequence | soluble fraction (log2) |
| --- | --- |
| HMGAAVEVISLRYRSAAELLPIVRSLLSTEGKISADERTNSLIIVDSDEAVARVIHSLATLDT | -0.851 |
| HMSSDEEQLATLTRLLQKQEQIIQTLGPRNPMVSLQQYANTITKVIEMAGFKDTSQFINSQIP | -0.0429 |
| HMLFGKKYLGKVPNDASGRISLWNDIVKHHQELQNIRAIENFTSDNVTVAQGDTKKAVVVTDYVT | -0.152 |
| HMGSLQPLLLAAIDALQTHIRSGLPFRVEERLAELDQFRTELQNGSVPPQRGVNRLWAFYEDEFRL | -0.386 |
| HMETQVKVPNVVGMTQSKAIAKLKESKLDYEVQEQKHDGDKGKVVDQSEAEGTYVDRGTKVIIYVSTGE | ≥ 0.43 |
| HMPLRPNQRQFIHLMVYQGLDRNEAYAQANNKVLTEENYESIRTAAAKTFYTPHVNNYYHALMEEIRDRE | -0.404 |
| HMVSQELIMLGNRIREYRKERGFSQEILAEKSGVSTNTISRIEGGQMAMSVGILQRIVKALGVDANVMLG | 0.12 |
| HMAVPLVRGTVTSSVGTVLLLSVGERDFFLSEGEEKDGVLLQSLSEKSAVVVVSGRAYTLSL | -0.435 |
| HMEDSAKRHQIMDGARRVFMDLGFDGASMNEIARAAGVSKGTLYVYFTDKNRLFEAIVEQESL | -1.15 |
| HMGSLRSALDGIPGIGEQYQKRLLAQFGSVKAMRSASVEDFEAVRGIGRAKAQALYDALHAG | 0.13 |
| HMNREIVVYITGAVDNPGLYRLPLDSRLDDVLKLAVLSTNADREVLNPAQKLKDGQKIVVPYIVE | -0.452 |
| HMDNEIRIPLPSLQRDGFSIGTREDDGSQLVRIMSAGSFGGMIRSFRLPEGMRIEGAKWEGEIVSIRL | -0.0291 |
| HMVQQTEEDVIRDMYVEGKIFTIGEEVTDTYTGVTGKIIRRGTNYVTFMSEDGETYKKWLYEIELA | -1.82 |
| HMKPQKRYLFEEVLTFLKHNSEKSFNYKQLGAAMEISNESDRFTLLETLEELKHQGFVVEKEIGKYQAKE | 0.37 |
| HMSESLLTAAGFKTIAATTPEQKRHLEWLHPDQVTAVQLTGQHYYVYPDVAKSQLFVGTPKEYQAYLALRT | 0.00516 |
| HMSRPLISNMLRLLNLPPTVQRKVAAGVISAGHARALLGLNDEKEIEKLANRIVAEGLSVRATEEIVAIA | -1.28 |
| HMLTKSELVFDTLKKRIIDGELEPGTELVISRISEEFNVSTIPVREAIKTLASEGLVEMEPHKSAKVAE | -0.0422 |
| HMRMYDVNEYSDEELHRILDLSSPTDSELEARILQMIQKYKYTNGGDNEKMAVFFENIYHHFFD | -1.54 |
| HMEKGNEEALEQAREAILAVQSGEKYVDLDPANAAIRRKQHALAQASDLVSQSYGKDPNRYVRIFR | 0.367 |
| HMEEITLIAEDEGLRLDTWLTDKLKDYSRSYIQKLMEDELVLVNGKARKANYRIKTGDEIHVSIPEPE | -0.507 |
| HMGQTDTIIKTTTDLYYEMSTMSDDDKLVVAQTLRDVWMAVGRWSGKLSKKQREKVAEVKRVLGE | -0.5 |
| HMQFQVHEIKGKEYYIHVVEKGNTLYAISRMYSVPIETLKEENPRLNTTELTIGDRLLIPLDEVKRKNIE | -0.316 |
| HMQDFEEILKNAKIEDFKHTQTGEDLKVLKIEDKIEDFKGFNAYLVKNQIAYYSKFARGFVVKNIEKLQGV | 0.155 |
| HMFAQDQLFKKDNSKVDVKILEINTTEIKYKLFTYQDGPTITVAKKDVALIIYQNGVHEVIT | -1.17 |
| HMKVTGITDDILQRLKQQKGYLMLSDKSSPDEIYAAFGVSKKVFKQAIGTLFKQRQIIIEEQGIRLAN | 0.201 |

| Sequence | soluble fraction (log2) |
| --- | --- |
| HMKRITKKQLSQQLEQFFSSQPGKKLTLKDIFRALHLDTHPLKMLAMDIMEEMAWDDFITKKGENAYQLNT | -0.725 |
| HMDATGDPIADRILQALQLGELTRTQVNNVFQRHLAAARISQALNFLRSLKRADMRMEETAGRSGEVWFAI | -0.254 |
| HMLTKAEEQVMDYLWKLEKAFVKDILDEFPEPKPAYTTVSTMVRILEKKGMVGYTAYGKNHQYYPL | -1.18 |
| HMQQIAVDLSEFKPRLMRDMSSMLAGLYTHDLDLSSLDFSKVANFTFMFRGAIITGTLKMPKI | 0.109 |
| HMHMIDDYLARIGQLIRDARQHRGWTQVQLAEALGTSQSAVNRIERGNQNISLEMIARIGEALGSEIVSLG | -0.64 |
| HMGSLGRAIRSRREKMKVGLEELAAKTGLSESHISDIEEGRGFAPVGDILKIARALTIDPGELLK | 0.426 |
| HMDFIEYIISEESKGLRADQAISMENDKFSRSLIQKWIKKGRVLVNGRKIKPKDIVNLNDKITINPEESIN | -0.597 |
| HMFEFFKGIYSISLLKKDGIFFVTFKDENKEAVKHIFPEKPTALELGIKVMEMFEYKERYDGII | -0.226 |
| HMQEKLELIIPVSSIGKRADVAIQDLLSSYSRAKIQEWIKSGFILLESKKISPKDIFMGGERVFIDIQQDE | -1.38 |
| HMDDYRIEDMMTVVEEQVIRQKETNLSWFFKRAGSLNEIITIFLAALELIKVHRVYVKQEHNFDDIILRKE | -0.872 |
| HMTVNLPPKQKAAILLMSLPPEVSAQLFKELGPDEVHAITLEISKLPPISPDVRAQVIDEFLHSS | -0.226 |
| HMSRLQDAELQAQIDKMAGAMQLRDIPVYVQDIPTINGLAAPDGRVFITQGFIDKYKLGEVSAGEIASVI | 0.316 |
| HMQEAGLITQRIREMREKENWTQEYMAEQLGMSENGYAKIERGESNLSLKRLQQIADIFEVESAELLK | -0.566 |
| HMGNAQELQKKLEGLKGISGIEKLESDHYAEKYLVRITQPVDHKNPAAGTFTQRVIVAHVGFDRPTILVT | 0.318 |
| HMIYMIDPNDEIAVKLDEIYQRYLNRTIDPEGLIFFYNQIRNAQMGYSDVEKRILESPEYVSIPK | -1.23 |
| HMPTVLKQGSTGQEVKELQQALSKLGYRVTVTGEFDTATHYGVVRFQRKHRLTIDGIVGPQTLSKIRAHQK | -0.0726 |
| HMVNDDTIAATEAEILALLADKHRHHITELNSIRRPYEQIDAALSSLINEEKIFQEDGMLFV | -0.908 |
| HMTWDSFIGYTVTDVQKGYLGEITDVDETTINVLLRVDHKGEELLIPAVEELITEADHEARSLTVSLPEGL | -2.11 |
| HMGKTRSTDRTRRAILDAASDLMGKHGTSVSLARIAEAAGMSKGGLLHHFPSRNDLIRALGED | 0.396 |
| HMKAILHQESRSGFANATVIGGLDKFLDTNWNQLSKYIKKIETPYSDRSLEDRKIWISTILGILSTEI | 0.136 |
| HMHMHTADDFKQLAKHTSNGRLRTRYLALYHFKKGETRTQIAAYLGVARGSVNTWVSNYLAYGLEGLQS | -0.0479 |
| HMEREQNIAQGREVVQRELKRLGLTDVFTVEDIGRALKFDDIDEFLSKVGFGDIQTAKITGAIALMQQALR | -0.84 |
| HMSMDAVSLANRLLRFFQKRPGRKFTAADLAFETGMNERTGKSLVTSALEILSRTNQIEADGDGFRLKM | 0.243 |
| HMDTPMQEAVLQRLRDKVAQAAAGSKLPTVRQLIADYGVGQHVIQAALEKLRTEGLITSHVGKGTFVG | 0.142 |
| HMQQSQLDDIKSVVGGDEGYNKLREWTQANVPDETLKAFDKILDTQDPTMIKVAVEGFAAQMRQAE | -0.508 |
